# Experimental data: patent publication US20250269047A1
# Target: human B7-H3 naturally expressed on the surface of tumor cells (human) (UniProt Q5ZPR3)
# Experiment: FACS on A431 cells
# human B7-H3 naturally expressed on the surface of tumor cells (human), sequence (Q5ZPR3 29-534): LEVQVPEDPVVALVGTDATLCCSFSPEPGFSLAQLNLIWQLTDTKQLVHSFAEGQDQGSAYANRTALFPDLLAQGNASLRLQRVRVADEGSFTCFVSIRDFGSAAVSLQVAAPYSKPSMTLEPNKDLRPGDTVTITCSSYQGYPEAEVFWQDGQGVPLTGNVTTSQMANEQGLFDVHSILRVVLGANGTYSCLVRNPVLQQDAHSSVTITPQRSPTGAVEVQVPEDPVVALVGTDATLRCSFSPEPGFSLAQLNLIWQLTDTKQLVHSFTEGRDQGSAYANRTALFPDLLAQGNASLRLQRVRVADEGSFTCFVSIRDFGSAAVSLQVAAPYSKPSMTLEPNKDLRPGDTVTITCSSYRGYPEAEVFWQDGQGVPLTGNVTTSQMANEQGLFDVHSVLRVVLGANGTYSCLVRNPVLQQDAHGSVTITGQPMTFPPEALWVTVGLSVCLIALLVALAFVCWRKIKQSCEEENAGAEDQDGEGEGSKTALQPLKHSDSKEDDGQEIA
row,Binder,EC50 [µg/mL]
1,"ch10B4 (antibody, human IgG1, V domains shown) VH: EVQLQQSGPELVKPGASVKISCKTSGYTFTEYIMHWVKQSHGKSLEWIGGINPNNGGTTYNQKFKGKATLTVDKSSSTAYMELRSLTSEDSAVYYCARKGKDYFDWYFDVWGAGTTVTVSS VL: QIVLTQSPTIMSASPGEKVTMTCSASSSVSYMHWYQQKSGTSPKRWIYDTSKLASGVPARFSGSGSGTSYSLTISSMEAEDAATYYCQQWSSNPLTFGAGTKLELK",0.203
2,"Enoblituzumab (antibody, human IgG1, kappa, V domains shown) VH: EVQLVESGGGLVQPGGSLRLSCAASGFTFSSFGMHWVRQAPGKGLEWVAYISSDSSAIYYADTVKGRFTISRDNAKNSLYLQMNSLRDEDTAVYYCGRGRENIYYGSRLDYWGQGTTVTVSS VL: DIQLTQSPSFLSASVGDRVTITCKASQNVDTNVAWYQQKPGKAPKALIYSASYRYSGVPSRFSGSGSGTDFTLTISSLQPEDFATYYCQQYNNYPFTFGQGTKLEIKR",0.374
3,"ch9B11 (antibody, human IgG1, V domains shown) VH: EVQLQQSGPELVRPGVSVKISCKGSGYSFTDYAIHWVKQSHAMSLEWIGIINTYYGNTNYNQKFKGKATMTVDKSSSTAYMELARLTSADSAIYYCARSTTTATFYWYFDVWGAGTTVSVSS VL: DIVLTQSPVTLSVTPGDSVSLSCRASQSINNNLHWYQQKPHESPRLLIKYASQSISGIPSRFSGSGSGTDFTLSFNSVETEDFGMYFCQQSHSWPYTFGGGTKLEIK",0.137
4,"ch17A3 (antibody, human IgG1, V domains shown) VH: QVQLQQSGPELVRPGVSVKISCKGSGYTFTDYALHWVKQSHAKSPQWIGLINTYSSNTNYNQKFKDKATMTVDKSSSTAYMELARLTSEDSAIYYCARGITAVVGTRYYAMDYWGQGTSVTVSS VL: NIVLTQSPTTLSVTPGDTVSLSCRASQSISNNLHWYQQRSHESPRLIIKYTSQNISGIPSRFSGSGSGTDFTLSINSVETEDFGMYFCQQSYSWPLTFGAGTKLELKR",0.101

# Target: human B7-H3 naturally expressed on the surface of tumor cells (human) (UniProt Q5ZPR3)
# Experiment: FACS on SKVO3 cells
row,Binder,EC50 [µg/mL]
1,"Enoblituzumab (antibody, human IgG1, kappa, V domains shown) VH: EVQLVESGGGLVQPGGSLRLSCAASGFTFSSFGMHWVRQAPGKGLEWVAYISSDSSAIYYADTVKGRFTISRDNAKNSLYLQMNSLRDEDTAVYYCGRGRENIYYGSRLDYWGQGTTVTVSS VL: DIQLTQSPSFLSASVGDRVTITCKASQNVDTNVAWYQQKPGKAPKALIYSASYRYSGVPSRFSGSGSGTDFTLTISSLQPEDFATYYCQQYNNYPFTFGQGTKLEIKR",0.191
2,"hz17A3-14 (antibody, human IgG1, kappa, V domains shown) VH: EVQLVQSGAEVKKPGASVKVSCKASGYTFTDYALHWVRQAPGQGLEWMGLINTYSSNTNYNQKFKDRVTMTRDTSISTAYMELSRLRSEDTAVYYCARGITAVVGTRYYAMDYWGQGTLVTVSS VL: EIVLTQSPGTLSLSPGERATLSCRASQSISNNLHWYQQKPGQAPRLLIKYTSQSISGIPDRFSGSGSGTDFTLTISRLEPEDFAVYYCQQSYSWPLTFGGGTKVEIKR",0.0441
3,"MGC-018 (antibody, human IgG1, kappa, V domains shown) VH: EVQLVESGGGLVKPGGSLRLSCAASGFTFSSYGMSWVRQAPGKGLEWVATINSGGSNTYYPDSLKGRFTISRDNAKNSLYLQMNSLRAEDTAVYYCARHDGGAMDYWGQGTTVTVSS VL: DIQMTQSPSSLSASVGDRVTITCRASESIYSYLAWYQQKPGKAPKLLVYNTKTLPEGVPSRFSGSGSGTDFTLTISSLQPEDFATYYCQHHYGTPPWTFGQGTRLEIKR",0.0565
